Data on four proteins can be found in PMC1257591, “In Vitro Inhibition of Human Hepatic and cDNA-Expressed Sulfotransferase Activity with 3-Hydroxybenzo[a]pyrene by Polychlorobiphenylols” (Environmental Health Perspectives, 2005).

Common to all, as to assay type: biochemical, human
Substrate in series [1]: Oc1ccc2ccc3c4ccccc4cc4ccc1c2c43
Put plainly: Kinetics of 3-OH-BaP sulfonation by expressed SULT1A1*2. Particulars: other: expressed SULT1A1*2; two-substrate model. The source says: (§1) The expression of human SULT1A1*1, SULT1A3, SULT1B1, and SULT1E1 in Escherichia coli has been described previously ([Dajani et al. 1998]; [Wang et al. 1998]). We grew E. coli cells containing the respective sulfotransferase genes as described previously ([Falany et al. 1990], [1994]), and prepared 100,000g supernatant fractions for use in inhibition studies and for partial purification of the SULT enzymes. We purchased expressed SULT1A1*2 cytosolic extract from PanVera (Madison, WI) and used it as supplied.
We determined SULT activity with 3-OH-BaP as substrate by a fluorimetric assay of BaP-3-SO4 product formation, as described previously ([Wang et al. 2004]). […] Duplicate tubes were prepared for each incubation condition. We examined the kinetics of sulfonation in three liver cytosol fractions by systematically varying the concentration of 3-OH-BaP or PAPS. […]
(§2) We determined the kinetic parameters for 3-OH-BaP sulfonation by partially purified preparations of the cDNA-expressed SULT isozymes under incubation conditions similar to those used for liver cytosol. […]
(§3) We calculated the enzyme kinetic parameters from studies with variable concentrations of 3-OH-BaP using nonlinear regression analysis and GraphPad 4.0 software (GraphPad Software, San Diego, CA). […]

Substrate in series [2]: Oc1ccc2ccc3c4ccccc4cc4ccc1c2c43
Put plainly: Kinetics of 3-OH-BaP sulfonation by partially purified cDNA-expressed SULT1A1*1. The settings on record: other: apparent; partially purified SULT1A1*1; 3-OH-BaP as substrate.
Description: as §1
(§4) The 100,000g supernatant fractions of SULT1A1*1, SULT1A3, SULT1B1, and SULT1E1 were partially purified by chromatographic methods ([Falany et al. 1990], [1994]). After the last step, a 3′-phosphoadenosine 5′-phosphate (PAP)-agarose affinity column, we dialyzed the fractions eluted with PAP with three changes of buffer to remove PAP before the assay of SULT activity with 3-OH-BaP as substrate. We analyzed active fractions by SDS-PAGE ([Laemmli 1970]) to assess the purity of each SULT enzyme. We stained the gels with Coomassie R-250 reagent and determined the percentage of protein present as each respective SULT enzyme by scanning densitometry.
(§5) We determined SULT activity with 3-OH-BaP as substrate by a fluorimetric assay of BaP-3-SO4 product formation, as described previously ([Wang et al. 2004]). […] Duplicate tubes were prepared for each incubation condition. We examined the kinetics of sulfonation in three liver cytosol fractions by systematically varying the concentration of 3-OH-BaP or PAPS. When the variable substrate was 3-OH-BaP, we used 12 concentrations in the range from 0.035 to 2.00 μM, and the concentration of PAPS was kept constant at 10 μM. […]
as §2, §3

Substrate in series [3]: Oc1ccc2ccc3c4ccccc4cc4ccc1c2c43
Put plainly: Kinetics of 3-OH-BaP sulfonation by partially purified cDNA-expressed SULT1E1. Particulars: other: apparent, 3-OH-BaP as substrate.
Description: as §1, §4, §5, §2, §3

Substrate in series [4]: Oc1ccc2ccc3c4ccccc4cc4ccc1c2c43
Description: Kinetics of 3-OH-BaP sulfonation by partially purified cDNA-expressed SULT1A3. Particulars: other: apparent, 3-OH-BaP as substrate.
Description: as §1, §4, §5, §2, §3

For orientation: Km means the substrate concentration at which the rate is half of its maximum. By Vmax is commonly meant the top rate of the reaction or transport when substrate is in excess.

B1: SULT1A1*2 (Homo sapiens; R213H) (protein)
chain: MELIQDTSRPPLEYVKGVPLIKYFAEALGPLQSFQARPDDLLISTYPKSGTTWVSQILDMIYQGGDLEKCHRAPIFMRVPFLEFKAPGIPSGMETLKDTPAPRLLKTHLPLALLPQTLLDQKVKVVYVARNAKDVAVSYYHFYHMAKVHPEPGTWDSFLEKFMVGEVSYGSWYQHVQEWWELSRTHPVLYLFYEDMKENPKREIQKILEFVGHSLPEETVDFVVQHTSFKEMKKNPMTNYTTVPQEFMDHSISPFMRKGMAGDWKTTFTVAQNERFDADYAEKMAGCSLSFRSEL
notes: purchased PanVera (Madison, WI); host or cells: Sf-9
Turning to B1, the Km in series [1] worked out at 0.022 µM.

B2: SULT1A1*1 (Homo sapiens) (protein)
chain: MELIQDTSRPPLEYVKGVPLIKYFAEALGPLQSFQARPDDLLISTYPKSGTTWVSQILDMIYQGGDLEKCHRAPIFMRVPFLEFKAPGIPSGMETLKDTPAPRLLKTHLPLALLPQTLLDQKVKVVYVARNAKDVAVSYYHFYHMAKVHPEPGTWDSFLEKFMVGEVSYGSWYQHVQEWWELSRTHPVLYLFYEDMKENPKREIQKILEFVGRSLPEETVDFVVQHTSFKEMKKNPMTNYTTVPQEFMDHSISPFMRKGMAGDWKTTFTVAQNERFDADYAEKMAGCSLSFRSEL
notes: made in house; host or cells: Escherichia coli
For B2, in series [2], the Km amounted to 0.018 µM, the Vmax turned out to be 0.00689 µmol/min/mg and the Vmax/Km turned out to be 383000 µL/min/mg.

B3: SULT1E1 (Homo sapiens) (protein)
chain: MNSELDYYEKFEEVHGILMYKDFVKYWDNVEAFQARPDDLVIATYPKSGTTWVSEIVYMIYKEGDVEKCKEDVIFNRIPFLECRKENLMNGVKQLDEMNSPRIVKTHLPPELLPASFWEKDCKIIYLCRNAKDVAVSFYYFFLMVAGHPNPGSFPEFVEKFMQGQVPYGSWYKHVKSWWEKGKSPRVLFLFYEDLKEDIRKEVIKLIHFLERKPSEELVDRIIHHTSFQEMKNNPSTNYTTLPDEIMNQKLSPFMRKGITGDWKNHFTVALNEKFDKHYEQQMKESTLKFRTEI
notes: as for B2
For the protein B3, in series [3], the Michaelis constant (Km) is 0.05 µM, the maximum rate (Vmax) worked out at 0.00835 µmol/min/mg and the Vmax/Km was determined as 167000 µL/min/mg.

B4: SULT1A3 (Homo sapiens) (protein)
chain: MELIQDTSRPPLEYVKGVPLIKYFAEALGPLQSFQARPDDLLINTYPKSGTTWVSQILDMIYQGGDLEKCNRAPIYVRVPFLEVNDPGEPSGLETLKDTPPPRLIKSHLPLALLPQTLLDQKVKVVYVARNPKDVAVSYYHFHRMEKAHPEPGTWDSFLEKFMAGEVSYGSWYQHVQEWWELSRTHPVLYLFYEDMKENPKREIQKILEFVGRSLPEETMDFMVQHTSFKEMKKNPMTNYTTVPQELMDHSISPFMRKGMAGDWKTTFTVAQNERFDADYAEKMAGCSLSFRSEL
notes: as for B2
B4: in series [4], the Km came out at 2.90 µM, the Vmax was found to be 0.333 µmol/min/mg and the Vmax/Km is 115000 µL/min/mg.
